Source: the supplement of paper PMC9170038

Test system: MS2 coat protein
Test: apparent KD of MS2 coat protein; designed switch direction (-1 OFF switch, 1 ON switch): -1; higher = weaker reporter binding
Outline: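 Transcription of designed RNA switches on Illumina chips was done by stalled E. coli RNA polymerase. SNAP-549-labelled MS2 coat protein was then titrated in doubling steps from 0.7 or 1.5 nM to 3 µM, with steps of 0.8–1.5 h at the lowest and 10–20 min at the highest concentration. The per-design median over clusters of curve-fitted normalised fluorescence is reported as apparent KD.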

[1] = Eterna round: R95, input ligand: FMN 200 uM
[2] = Eterna round: R95, input ligand: microRNA oligo, concentration not stated
[3] = Eterna round: R95, input ligand: none
[4] = input ligand: microRNA oligo, concentration not stated

Sequence | apparent KD of MS2 coat protein [1] | apparent KD of MS2 coat protein [2] | apparent KD of MS2 coat protein [3] | apparent KD of MS2 coat protein (input ligand: FMN 200 uM) | apparent KD of MS2 coat protein [4] | apparent KD of MS2 coat protein (input ligand: none)
AAUAACAAGCAAGAUCCUAACAUGAGGAUCACCCAUGUGCUCGUCUUGUAAAGUACUAUCACGAAAGUGAUAGUACA [Sensor 3, v1 - 48] (puzzle: Sensor v3, turn-off variant 1) | 0.02 µM | 0.723 µM | 0.0221 µM | – | – | –
CGGAGCAGAGGGAGAUCCAACAUGAGGAUCACCCAUGUCUCACAAGCUUUUUGCUCGUCUUAUUGUACCUUGGUACU [JL ViennaUCT Edcesobi mod 8] (puzzle: Sensor v3, turn-off variant 1) | 0.155 µM | 0.00975 µM | 0.0546 µM | – | – | –
ACAUGUUGCGCAGGAUAUGAGACACAUGAGGAUCACCCAUGUGGCUACAUGUCAUACCAAGCGUCUCAGAAGGGUGUUAACAUG [Ex NG2 #35] (Eterna round: R96, puzzle: Exclusion NG 2) | – | – | – | 0.0235 µM | 0.0205 µM | 0.0284 µM
CCACGACAUGAGGAUCACCCAUGUGAGGAUAUGGCCUGUAAAGCGUGAGCUGAAUCAAUCAGAAGGCGCGUGGG [salish99_ex1_r4_058] (Eterna round: R97, puzzle: Exclusion 1) | – | – | – | 0.119 µM | – | 0.0461 µM
CUGGUGUGAGGAUAUCAAAGACCUCGGUAAAGAACCGAGGAUGAGAAGGCACAUGAGGAUCACCCAUGUAACAA [Lauscege] (puzzle: Exclusion 4) | – | 0.0226 µM | – | – | – | –
UUAAUUAAUUAAGCGCAAGAUCACAUGAGGAUCACCCAUGUAUAGGAUAUCAGCUCGAUUAGAGCUGAGAAGGAUACAUAGCGC [ExNG3/2-A1] (Eterna round: R96, puzzle: Exclusion NG 3) | – | – | – | – | 0.185 µM | –
UCGCAGGGAGGAUAUACACACAGGUGACGCAGCCCAAAAGAACAUGAGGAUCACCCAUGUAGAAGGCUCAAUAU [Eternabot (Original) Solution 2] (Eterna round: R97, puzzle: Exclusion 2) | – | – | – | 0.0515 µM | – | 0.0312 µM
AAGAAACAUGAGGAUCACCCAUGUGAGGAUAUGACUAAGAAAAGAAAAGAAAGAAGACUCAGAAGGCACAAAGG [salish99-ex1_r3_075] (puzzle: Exclusion 1) | 0.0689 µM | 0.0545 µM | 0.0468 µM | – | – | –
CACCGUUACACAGGAUAUCUUACAUGAGGAUCACCCAUGUAAUAAAUGAGAAUUUCGAAUGUAUUAGAGAAGGGUGGAAUCGGC [Ostracism 67 - Jieux - Exclusion NG 2] (Eterna round: R96, puzzle: Exclusion NG 2) | – | – | – | – | 0.0298 µM | –
ACAUGAGGAUCACCCAUGUCCGGCUGGUCCGUCUCGGCUGUCGAGGAUAUAGCUUGGUGUCCGCGCUAGAAGGUGGGAGCUGGU [Aenatbe mod 69] (Eterna round: R96, puzzle: Exclusion NG 3) | – | – | – | 0.0997 µM | 0.0532 µM | 0.0966 µM
AAAAAGUUGAGAGGAUAUGGUGCCGAAACGGUGCUAGAAGGCUUUACAAAAAAACAUGAGGAUCACCCAUGUUCAUGUAGAGAA [AK ExNG1-1.1] (Eterna round: R96, puzzle: Exclusion NG 1) | – | – | – | 0.0163 µM | 0.0133 µM | 0.0156 µM
AAGAGGUCAGGAUAUACGGAAAGAGAGAGAAGGUGAGGGUAACAUGAGGAUCACCCAUGUAGAAGGGACUAAGA [JR_Exclu2_Sub074] (puzzle: Exclusion 2) | 0.0545 µM | 0.0448 µM | 0.0385 µM | – | – | –
CGUGCGUAUGUGAGGAUAUGCUGGUCCUUGGAUCGGCAGAAGGCACAUGAGGAUCACCCAUGUGGUGUCGUUCA [salish99_Bmod_ex4_091] (puzzle: Brourd's mod of Exclusion 4) | 0.0313 µM | 0.108 µM | 0.173 µM | – | – | –
GUGCCGCGAGGAUAUACAGACGGGUCCAAUACGUGUCUCGGACUUGAGGAUCACCCAAGUAGAAGGCUUUUCAG [LRO-Excl2-11-mod _r4_621 by salish99] (Eterna round: R97, puzzle: Exclusion 2) | – | – | – | 0.0277 µM | – | 0.0277 µM
GGAAGGAAGGAACAAGUUAACAUGAGGAUCACCCAUGUUGACUUCAUGUGCACGCAAAGCGUGCAAGCUCGUCUUAU [AK-miRNA-r3-16] (Eterna round: R97, puzzle: Sensor, turn-off variant 1) | – | – | – | 0.0183 µM | – | 0.0173 µM
UUAAUUCUGAUUCUUGAAAUACAUGAGGAUCACCCAUGUUCACAGGAUAUUGAUUAUGGUAGUAACAAGAAGGGUGUAUCAUUU [JR_ExcNG3_Sub040] (Eterna round: R96, puzzle: Exclusion NG 3) | – | – | – | 0.192 µM | 0.162 µM | 0.111 µM
UUAUAUAGAGUGAGGAUAUGCUGGUCCUUGGAUCAGCAGAAGGCACAUGAGGAUCACCCAUGUAAUAUAUUAUU [Mat - Exclusion 4 - JL Mod - D37] (puzzle: Brourd's mod of Exclusion 4) | – | 0.0211 µM | – | – | – | –

Sequence | apparent KD of MS2 coat protein [1] | apparent KD of MS2 coat protein [2] | apparent KD of MS2 coat protein [3] | apparent KD of MS2 coat protein (input ligand: FMN 200 uM) | apparent KD of MS2 coat protein [4] | apparent KD of MS2 coat protein (input ligand: none)
CCUCGACAUGAGGAUCACCCAUGUCAGGAUAUUGUGUCUCGGGUUUUUUACCGAAAGGCGAGAAGGGAUGUGUG [LRO-Excl1-12] (puzzle: Exclusion 1) | – | 0.0139 µM | – | – | – | –
CUCUAGUCAGGAUAUUAGUUGUCGCCCAGCAACGGGCGACAUGAGAAGGGACUUGAGGAUCACCCAAGUAAACG [Leorteti] (Eterna round: R97, puzzle: Exclusion 4) | – | – | – | 0.279 µM | – | 0.478 µM
AAGUACCGUCACGAAAGUGAUGGUACAACAAGCAUGUAAACAUGAGGAUCACCCAUGUCCUCAAAUGCUCGUCUUAU [Sensor 3 - 62] (puzzle: Sensor v3, turn-off variant 2) | 0.732 µM | 2.02 µM | 0.776 µM | – | – | –
AGUUACUACAAGCUUUGGGACAUGAGGAUCACCCAUGUUCGUCUUAUUGUAGUAGGUACGCUGACGUACCUACUACA [Mat - Sensor v3 - turn-off var 1 - JL Mod - D7] (puzzle: Sensor v3, turn-off variant 1) | 0.0148 µM | 0.0396 µM | 0.0138 µM | – | – | –
ACAUAAAAGGCAGGAUAUUCAAACCCAUAGCUAGAAGAAGGGCCGAAGAACUUCUAACAUGAGGAUCACCCAUGUGAGCAUGGG [Ininesxeed] (Eterna round: R96, puzzle: Exclusion NG 1) | – | – | – | 0.0824 µM | 0.0439 µM | 0.0646 µM
GAGUGACAUGAGGAUCACCCAUGUAAGGAUAUACGGUUGGUAGAGAGAGGGCUAAAGGGUAGAAGGUACGAAGG [JR_Exclu1_Sub055] (puzzle: Exclusion 1) | – | 0.0631 µM | – | – | – | –
AACAGUCUAGAGGAUAUGUUGGAUUAAUAUCUGGCAGAAGGCUGGACAUGAGGAUCACCCAUGUAAAUACUACC [Omei Ex6 A14] (Eterna round: R97, puzzle: Exclusion 6) | – | – | – | 0.0987 µM | – | 0.0344 µM
CCUGUUCGGGUUGGUUUGGGCGGGACAUGAGGAUCACCCAUGUAGGAUAUUUUGGCUGCCGGUCGGGAGAAGGACAUGCUUGGG [-22.4, -21.3 kcal, 17% A] (Eterna round: R96, puzzle: Exclusion NG 3) | – | – | – | 0.135 µM | 0.0613 µM | 0.0983 µM
UAUUUGCAAGCGAGAUCCCACAUGAGGAUCACCCAUGUGCUCGUCUUAUAAGGUACUGUGACGAAAGUCACGGUACC [Sensor 3, v1 - 91 v26] (Eterna round: R97, puzzle: Sensor, turn-off variant 1) | – | – | – | 0.0165 µM | – | 0.0137 µM
UCUCUGCGAGGAUAUACGUGCGCGCGCGCGCGCGCGCGCGUACAUGAGGAUCACCCAUGUAGAAGGCGCUCUGC [Apr-15 SS2-3] (puzzle: Exclusion 2) | – | 0.0194 µM | – | – | – | –
UCGAUGUGAGGAUAUAUUUUUAUUAGUCCUUAUGUUUUAUAACUUGAGGAUCACCCAAGUAGAAGGCGCUACGU [JR_Ex2_Sub062] (Eterna round: R97, puzzle: Exclusion 2) | – | – | – | 0.0255 µM | – | 0.0409 µM
CCGUGGCAAGGAUAUACAUAGGAGAGGAAGGCAAGAGGUGGACAUGAGGAUCACCCAUGUAGAAGGUGCAGAUC [JR_Exclu2_Sub027] (puzzle: Exclusion 2) | – | 0.157 µM | – | – | – | –
CAGUACUGAGGAUAUACAUGAGGAUCACCCAUGUCUUCCAGCUAGGAAACUAGCAAAUGUAGAAGGCAGUACUG [Salish 065 m9] (Eterna round: R97, puzzle: Exclusion 3) | – | – | – | 0.639 µM | – | 0.0718 µM
GAUUAUGCGAGCUUUAGGGACAUGAGGAUCACCCAUGUUCGUCUUAUUAGUCUAGGUACGCUGACAUACCUAAAUCU [JMF 100] (puzzle: Sensor v3, turn-off variant 1) | 0.0218 µM | 0.0329 µM | 0.0216 µM | – | – | –
CUCUUGUUAGGAUAUCAAACCAGCGGCGGAACCGCUGGAAGUGAGAAGGGACAUGAGGAUCACCCAUGUAAGAA [Usrebiis] (puzzle: Exclusion 4) | 0.161 µM | 0.0393 µM | 0.0648 µM | – | – | –
UGAGUGCUGCGAGGAUAUACAUGAGGAUCACCCAUGUAAUCGUGUGAGGCUUUGCCUCACACGAUGUAGAAGGCGCAGUACUCU [JL ENG2 1.09] (Eterna round: R96, puzzle: Exclusion NG 2) | – | – | – | 0.00984 µM | 0.00897 µM | 0.0119 µM
AAAGAACAUGAGGAUCACCCAUGUAAGGAUAUGCAAAGAAAGAAAGAAGAAAGAGAAAGCAGAAGGUACAAGAA [JR_Exclu1_Sub071] (puzzle: Exclusion 1) | 0.0344 µM | 0.0441 µM | 0.0368 µM | – | – | –
